Source: publication PMC13480645 (PLOS Pathogens, 2026)
Substitutions are numbered along the chain they refer to.

B1: eCC65.1-12 (antibody, V domains shown)
VH: EVQLVQSGAEVKKPGASVKVSCKASGYTFTSQYMHWVRQAPGQGLEWMGIIDPSGGGTSYAQKFRDRVSMTRDTPTSTVYMELRSLRSEDTAVYYCASLWFENPSWRDYWGQGTLVTVSS
VL: DVVMTQSPGTLSLSPGERATLSCRASQTVNKNYLAWYQQKPGQAPRLLIYHASSRATGIPDRFSGSGSGTDFTLTISRLEPEDFAVYYCQQYGASPPLFTFGPGTKLEIK
B2: eCC65.1-8 (antibody, V domains shown)
VH: VQLVQSGAEVKKPGASVKVSCKASGYEFTSQYMHWVRQAPGQGLEWMGIIDPSGGGASYAQKFRDRVSMTRDTPTSTVYMELRSLRSEDTAVYYCASLWFGNPSWRDYWGQGTLVTVSS
VL: VMTQSPGTLSLSPGERATLSCRASQTVNSNYLAWYQQKPGQAPRLLIYHASSRATGIPDRFSGSGSGTDFTLTISRLEPEDFAVYYCQQYQSSPPLFTFGPGTKLEIK
B3: eCC65.1-13 (antibody, V domains shown)
VH: B1 VH
VL: B2 VL with S29K, H49G, Q91G, S92A
B4: eCC65.1-10 (antibody, V domains shown)
VH: B2 VH with E27D, A57T, G101E, R106S
VL: B2 VL with S29K, Q91G, S92A
B5: eCC65.1-7 (antibody, V domains shown)
VH: B2 VH with E27S, A57T, G101E
VL: B2 VL with S29K, Q91G, S92A
B6: eCC65.1-5 (antibody, V domains shown)
VH: B2 VH with S24T, E27T, A57T, L98I, G101E
VL: B2 VL with S29K, H49G, Q91G
B7: eCC65.1-3 (antibody, V domains shown)
VH: B2 VH with E27T, S53E, A57T, G101E, N102Q
VL: B2 VL with S29K, Q91G, S92A
B8: eCC65.1-1 (antibody, V domains shown)
VH: B2 VH
VL: B2 VL with Q91G, S92A
B9: eCC65.1-9 (antibody, V domains shown)
VH: B2 VH with E27D, S53E, A57T, G101E, N102K
VL: B2 VL with N28T, Q91G, S93K
B10: eCC65.1-11 (antibody, V domains shown)
VH: B2 VH
VL: B2 VL with Q25S, Q91G, S92A
B11: eCC65.1-2 (antibody, V domains shown)
VH: B2 VH with S24T, E27T, S53K, A57T, G101E, R106T
VL: B2 VL with S29K, Q91G
B12: eCC65.1-6 (antibody, V domains shown)
VH: B1 VH
VL: B2 VL with S29K, Q91G
B13: eCC65.1-4 (antibody, V domains shown)
VH: B2 VH with E27T, T29E, S53K, A57T, G101E, N102T
VL: B2 VL with S29K, H49G, Q89T, Q91G

biological target: T1, SARS-CoV-2 S-2P protein (SARS-CoV-2, ancestral (Wuhan-Hu-1) …, UniProt P0DTC2, stabilised); experiment: cell-based or functional assay; settings: not given

| Binder | IC50 of neutralisation of SARS-CoV-2 pseudovirus (HeLa-hACE2 cells) [µg/mL] |
| --- | --- |
| B1 | 5.77 |
| B2 | 3.95 |
| B3 | 2.41 |
| B4 | 1.86 |
| B5 | 3.01 |
| B6 | 1.63 |
| B7 | 4.67 |
| B8 | 5.79 |
| B9 | 2.6 |
| B10 | 5.26 |
| B11 | 2.05 |
| B12 | 2.98 |
| B13 | 1.84 |

biological target: T1, SARS-CoV-2 S-2P protein; experiment: BLI; settings: both partners purified

| Binder | Kd [nM] | kon [M⁻¹ s⁻¹] |
| --- | --- | --- |
| B1 | < 0.001 | 273000 |
| B2 | 0.945 | 258000 |
| B3 | 0.0819 | 256000 |
| B4 | < 0.001 | 278000 |
| B5 | 0.157 | 270000 |
| B6 | < 0.001 | 286000 |
| B7 | < 0.001 | 289000 |
| B8 | 0.843 | 236000 |
| B9 | 0.0102 | 306000 |
| B10 | 0.801 | 249000 |
| B11 | < 0.001 | 283000 |
| B12 | 0.0472 | 261000 |
| B13 | 0.0136 | 287000 |
